The values that follow are results of earlier work, collected in PMC6302113.

The pKd is −log10 of the Kd, conventionally taken in molar units.

pKd: −log10 of the molar value.

This series addresses IL-22 (Homo sapiens) (UniProt Q9GZX6).
Chain of UniProt Q9GZX6 (Q9GZX6 34-179): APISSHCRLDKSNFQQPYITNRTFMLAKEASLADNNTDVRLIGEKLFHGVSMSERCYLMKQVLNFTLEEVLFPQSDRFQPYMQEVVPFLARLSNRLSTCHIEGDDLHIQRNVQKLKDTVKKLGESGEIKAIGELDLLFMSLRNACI

With IL-22BPi2 (from UniProt Q969J5), the pKd is 12.00.
